Experimental data: paper PMC3817407

T1: ECF33_423
T1 chain: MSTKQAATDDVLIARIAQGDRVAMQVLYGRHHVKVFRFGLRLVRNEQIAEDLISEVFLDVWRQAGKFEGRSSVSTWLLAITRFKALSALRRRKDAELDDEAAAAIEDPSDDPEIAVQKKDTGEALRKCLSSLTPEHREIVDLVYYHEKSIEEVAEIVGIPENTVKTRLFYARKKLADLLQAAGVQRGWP

T2: ECF31_34
T2 chain: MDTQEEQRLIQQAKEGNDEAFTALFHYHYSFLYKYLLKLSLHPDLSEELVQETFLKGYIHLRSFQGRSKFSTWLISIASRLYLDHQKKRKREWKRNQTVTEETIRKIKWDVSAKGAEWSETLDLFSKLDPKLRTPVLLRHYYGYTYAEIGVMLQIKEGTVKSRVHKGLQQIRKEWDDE

T3: ECF38_1322
T3 chain: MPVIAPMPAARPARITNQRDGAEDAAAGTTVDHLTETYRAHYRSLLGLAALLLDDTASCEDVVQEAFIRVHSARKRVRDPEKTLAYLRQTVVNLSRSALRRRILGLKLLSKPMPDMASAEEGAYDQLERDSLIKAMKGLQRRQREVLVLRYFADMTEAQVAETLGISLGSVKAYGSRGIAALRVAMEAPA

T4: ECF15_524
T4 chain: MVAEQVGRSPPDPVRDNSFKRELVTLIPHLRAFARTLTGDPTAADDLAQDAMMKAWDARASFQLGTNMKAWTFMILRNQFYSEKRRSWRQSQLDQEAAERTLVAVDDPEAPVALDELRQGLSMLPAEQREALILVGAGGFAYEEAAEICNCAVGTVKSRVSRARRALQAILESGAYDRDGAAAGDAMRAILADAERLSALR

T5: ECF25_1645
T5 chain: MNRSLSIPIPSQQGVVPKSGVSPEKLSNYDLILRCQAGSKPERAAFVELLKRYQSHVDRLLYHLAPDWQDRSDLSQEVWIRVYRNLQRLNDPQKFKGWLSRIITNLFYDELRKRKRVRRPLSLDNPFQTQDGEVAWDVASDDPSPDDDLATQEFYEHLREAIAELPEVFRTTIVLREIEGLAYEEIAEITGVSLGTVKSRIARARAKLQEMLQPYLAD

T6: ECF20_992
T6 chain: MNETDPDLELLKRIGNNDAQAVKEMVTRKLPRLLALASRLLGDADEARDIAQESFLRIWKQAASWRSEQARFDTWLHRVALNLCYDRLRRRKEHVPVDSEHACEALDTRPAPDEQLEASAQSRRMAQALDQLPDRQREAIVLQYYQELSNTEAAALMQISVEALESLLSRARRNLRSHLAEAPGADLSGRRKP

T7: ECF37_2513
T7 chain: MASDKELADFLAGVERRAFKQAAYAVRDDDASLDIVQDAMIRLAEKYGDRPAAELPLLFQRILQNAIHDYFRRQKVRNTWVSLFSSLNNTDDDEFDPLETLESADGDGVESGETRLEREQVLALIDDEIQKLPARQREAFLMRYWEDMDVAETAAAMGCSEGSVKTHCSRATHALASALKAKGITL

T8: ECF11_3726
T8 chain: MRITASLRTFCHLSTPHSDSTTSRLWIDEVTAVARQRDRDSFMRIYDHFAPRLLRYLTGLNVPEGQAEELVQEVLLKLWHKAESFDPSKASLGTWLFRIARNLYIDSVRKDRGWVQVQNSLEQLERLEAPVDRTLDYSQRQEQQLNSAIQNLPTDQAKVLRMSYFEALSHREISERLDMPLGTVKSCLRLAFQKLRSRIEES

T9: ECF30_35
T9 chain: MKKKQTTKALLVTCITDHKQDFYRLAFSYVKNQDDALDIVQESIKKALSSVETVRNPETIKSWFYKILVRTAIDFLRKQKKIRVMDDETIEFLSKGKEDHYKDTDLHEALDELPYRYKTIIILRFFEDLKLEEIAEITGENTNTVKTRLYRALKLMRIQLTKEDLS

T10: ECF03_1244
T10 chain: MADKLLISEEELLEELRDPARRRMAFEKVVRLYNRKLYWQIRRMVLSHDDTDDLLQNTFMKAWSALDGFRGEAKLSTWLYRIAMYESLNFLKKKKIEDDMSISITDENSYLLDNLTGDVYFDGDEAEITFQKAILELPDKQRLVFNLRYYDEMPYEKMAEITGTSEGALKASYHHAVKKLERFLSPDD

T11: ECF02_915
T11 chain: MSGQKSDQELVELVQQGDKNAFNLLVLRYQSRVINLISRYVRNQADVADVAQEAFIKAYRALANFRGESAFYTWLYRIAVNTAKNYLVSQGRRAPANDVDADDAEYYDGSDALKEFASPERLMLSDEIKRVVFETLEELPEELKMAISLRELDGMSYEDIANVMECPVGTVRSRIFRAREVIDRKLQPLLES

T12: ECF14_3200
T12 chain: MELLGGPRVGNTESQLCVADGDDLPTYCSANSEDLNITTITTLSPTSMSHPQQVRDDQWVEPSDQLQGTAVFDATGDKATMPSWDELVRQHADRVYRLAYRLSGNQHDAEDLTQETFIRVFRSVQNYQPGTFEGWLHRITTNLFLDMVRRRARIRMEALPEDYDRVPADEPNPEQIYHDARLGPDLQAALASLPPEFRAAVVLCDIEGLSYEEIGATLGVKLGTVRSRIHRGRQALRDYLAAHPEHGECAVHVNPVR

T13: ECF34_1384
T13 chain: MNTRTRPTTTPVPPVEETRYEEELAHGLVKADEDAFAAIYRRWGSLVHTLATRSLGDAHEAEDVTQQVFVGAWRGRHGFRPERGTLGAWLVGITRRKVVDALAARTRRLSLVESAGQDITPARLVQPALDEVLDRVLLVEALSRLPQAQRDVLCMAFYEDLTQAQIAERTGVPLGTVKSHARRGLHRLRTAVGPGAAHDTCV

T14: ECF14_1324
T14 chain: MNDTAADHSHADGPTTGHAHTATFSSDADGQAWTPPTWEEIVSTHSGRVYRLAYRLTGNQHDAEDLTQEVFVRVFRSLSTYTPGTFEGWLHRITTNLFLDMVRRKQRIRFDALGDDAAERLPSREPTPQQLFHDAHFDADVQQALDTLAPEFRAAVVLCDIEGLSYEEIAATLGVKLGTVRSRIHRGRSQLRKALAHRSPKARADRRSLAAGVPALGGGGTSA

B1: AS11_987 (protein)
chain: MNKHPDNNLLEAYASGSIDAVSGLVVATHLETCSKCRAYVNQVEASQANTVSESPSEYSPEFDDMLNDIINAEPVNDNVVIQDTAFVNVAGKSFELPKTLVRFSDLVGSWRSYGGKVFSAQIDLGEDARVSLMYIGENVQIPQHTHRGLESTLVLHGGFSDEDGQYEEGDLMVRDASVKHSPFTQEGEDCLCLTVLTEPMIFTQGVARIFNLFGKGLYP
B2: AS03_1198 (protein)
chain: MDKDFDFDNIGKRTPYRTPDNFFEETQRKILERTVDEQRKKRRLKRIIPTVIAVAAVLAGILFTPSLRYMNTDTPSASNILAVDKNNVTTDPVDKWIKELSDEELEELVSFSENDIFLN
B3: AS15_436 (protein)
chain: MAQSTEPKASPQEATAKGGDNTKGKSRKELQQQIDENLRRVYEEALVQEVPDRFAMLLDQLRQKGTGK
B4: AS01_3473 (protein)
chain: MSNYDNAELLALWLEGKLTPKQRDEFEQRCIQDSQFAEQVDAAAMVKIGADDYSSSEVPQWNKAATFEPQQANNSGSWLSGVSLVTSALAIVLVLTGTQVTTSEGELRIRFGSGQSEQALVKLVDSKLDAFKQNQQDAFTLYAQTLQQQQSESASQLTNYLLSSSRKERREDFAELIKFVNQQRSDDQLFYARQLNQLQQDVYHDATGVALESIQQ
B5: AS14_1324 (protein)
chain: MSGSRPEPEGHLAEQHLGDRLSALVDGELGHDARERVLAHVATCPKCKAEVDAQRRLKNVFAEAAPPAPSESFLARLQGLPGGGDSDGGGSPFSGLPGGFGASAASGVFGPRRDERFEFDYVPAGSHTPVLPSATSGRGFRIHEVGRHESDRSASRGLRFAFAAAGAVSLAAIALGGVTLGTPDTTTEARGSGSGSNVTPLRTPGSAAATGSESQRRRTAGPLLGQGQRALGDLPVASTTASAPLLPGMPAPAGGDARQQAVRALTTPVTAGAAAMSPLIRPLEAVPPLSLSSWSAAPEVRPPGLLAAPDPAPSPYPAASPAASSSPLR
B6: AS03_1244 (protein)
chain: MKQFDPDVNIRPKEDSIRHYSVPDDYFASFTDKLMAQIPAVKEENTVVVPSVALWPKLRPLLYLAASFLLMIGMFKAFSLFGVGSDTGRTTSTSAGLVALDHGDTRWSEDTDYRDFLHDNCAETVSDEWVLTDFSE
B7: AS04_1609 (protein)
chain: MNRTTEQRNAEVMKTIGLLDQMPRVEVDHLFRVRLMQRIEAMEVKKTSWSALPGGAFNPRLAFMALLLMLNIASALMLFMHGTPQATGSSGAIAESLTEDYGGPALSYYDDQTTIDR

Experiments:
ECF33_423 = biological target: T1, ECF33_423
ECF31_34 = biological target: T2, ECF31_34
ECF38_1322 = biological target: T3, ECF38_1322
ECF15_524 = biological target: T4, ECF15_524
ECF25_1645 = biological target: T5, ECF25_1645
ECF20_992 = biological target: T6, ECF20_992
ECF37_2513 = biological target: T7, ECF37_2513
ECF11_3726 = biological target: T8, ECF11_3726
ECF30_35 = biological target: T9, ECF30_35
ECF03_1244 = biological target: T10, ECF03_1244
ECF02_915 = biological target: T11, ECF02_915
ECF14_3200 = biological target: T12, ECF14_3200
ECF34_1384 = biological target: T13, ECF34_1384
ECF14_1324 = biological target: T14, ECF14_1324

Binder	fold repression (ECF33_423)	fold repression (ECF31_34)	fold repression (ECF38_1322)	fold repression (ECF15_524)	fold repression (ECF25_1645)	fold repression (ECF20_992)	fold repression (ECF37_2513)	fold repression (ECF11_3726)	fold repression (ECF30_35)	fold repression (ECF03_1244)	fold repression (ECF02_915)	fold repression (ECF14_3200)	fold repression (ECF34_1384)	fold repression (ECF14_1324)
B1	2.38	2.53	2.08	3.35	2.46	3.26	1.66	6.99	2.89	2.2	3.1	2.94	2.37	3.15
B2	0.857	1.12	1.07	1.49	0.816	0.888	1.07	1.38	1.17	1.36	2.43	0.974	0.959	0.798
B3	3.04	3.29	2.66	33.1	1.87	1.95	5.1	7.87	2.1	1.54	1.55	9.47	2.2	9
B4	1.1	1.97	1.27	1.61	0.81	2.52	1.38	5.65	1.56	1.39	2.34	2.06	1.64	2.61
B5	4.28	5.28	2.76	5.32	3.18	6.81	3.89	11	3.36	3.13	2.86	35.5	2.76	47.4
B6	1.65	1.92	1.68	2.14	1.37	1.93	1.89	3.57	1.54	60.8	2	2.19	1.65	2.35
B7	3.53	3.92	3.12	2.88	1.06	7.41	2.72	13.9	1.99	4.39	2.99	4.47	2.28	8.02
